In assay [1] the target is Human FcRn (extracellular domain) (human, UniProt P55899 24-297). As to the kind of experiment: SPR (ProteOn XPR36), antibody immobilised, steady state, pH 6.0. Here is the method: (§1) Experiments were performed using the ProteOn XPR36 surface plasmon resonance system (Bio Rad). Phosphate buffered saline with 0.005% Tween 20 (PBS/Tween), pH 7.4 was used as running buffer for most experiments with the exception of Human FcRn (extracellular domain) binding in which Phosphate buffered saline with 0.005% Tween 20 (PBS/Tween), pH 6.0 was used. All experiments were performed at 25° C. Antibodies were immobilized on a ProteOn™ GLC Sensor Chip (#176-5011) using EDAC (1-Ethyl-3-[3-dimethylaminopropyl]carbodiimide) and sulfo-NHS (N-hydroxysulfosuccinimide) to an R.U. (response unit) level of 4000-6000. C1q, FcγRI, FcγRIIa, FcγRIIb, FcγRIII(158V), FcγRIII(158F), and FcRn were then flowed over the IgG immobilized surface at various concentrations at a rate of 25 μl/minute for a long enough period of time to achieve steady state, or near steady state. Binding (if any could be determined) was quantified via steady state equilibrium binding analysis using the ProteOn software. Human FcγRI, FcγRIIa, FcγRIIb, FcγRIII(158V), FcγRIII(158F), and FcRn extracellular domains were generated via mammalian expression vectors in house. Human C1q was obtained from Quidel (CA).
Chain of Human FcRn (extracellular domain) (P55899 24-297): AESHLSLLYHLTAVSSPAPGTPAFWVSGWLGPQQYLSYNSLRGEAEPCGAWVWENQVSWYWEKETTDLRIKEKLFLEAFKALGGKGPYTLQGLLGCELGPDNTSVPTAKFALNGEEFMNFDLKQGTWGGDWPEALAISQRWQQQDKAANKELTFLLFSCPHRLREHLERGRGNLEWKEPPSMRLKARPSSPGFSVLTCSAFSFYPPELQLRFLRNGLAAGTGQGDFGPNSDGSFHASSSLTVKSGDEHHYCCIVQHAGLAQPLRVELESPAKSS

For assay [2], the target named is T1, Human FcγRIa extracellular domain (human, UniProt P12314 16-292).
T1 construct: extracellular domain
T1 sequence (P12314 16-292): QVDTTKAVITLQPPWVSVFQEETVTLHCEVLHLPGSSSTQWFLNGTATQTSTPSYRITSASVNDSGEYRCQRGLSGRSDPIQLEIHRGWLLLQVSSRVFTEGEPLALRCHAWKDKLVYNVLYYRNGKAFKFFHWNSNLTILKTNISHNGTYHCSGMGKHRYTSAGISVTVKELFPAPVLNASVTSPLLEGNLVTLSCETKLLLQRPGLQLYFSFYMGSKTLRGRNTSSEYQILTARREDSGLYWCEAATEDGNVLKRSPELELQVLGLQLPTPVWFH
As to the kind of experiment: SPR (ProteOn XPR36), antibody immobilised, steady state, pH 7.4. Here is the method: as §1

Assay [3] has as its target T2, Human FcγRIIIa (158V) extracellular domain (human, UniProt P08637 17-208).
T2 construct: extracellular domain; Position 158 is the usual allotype numbering (mature protein), not the precursor numbering of the database entry; also called FcγRIII(158V)
Described as above. Here is the method: as §1

Assay [4] concerns the target T3, Human FcγRIIa extracellular domain (human, UniProt P12318 34-217).
T3 construct: extracellular domain
T3 sequence (looked up): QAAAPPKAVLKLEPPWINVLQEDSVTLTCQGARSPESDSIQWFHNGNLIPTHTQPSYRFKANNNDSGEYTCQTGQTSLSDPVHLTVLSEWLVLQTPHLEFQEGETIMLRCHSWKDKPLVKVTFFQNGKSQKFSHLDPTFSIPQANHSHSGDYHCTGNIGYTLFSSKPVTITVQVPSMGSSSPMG
The description is as above. Here is the method: as §1

For assay [5], the target named is T4, Human FcγRIIb extracellular domain (human, UniProt P31994 43-217).
T4 construct: extracellular domain
T4 sequence (looked up): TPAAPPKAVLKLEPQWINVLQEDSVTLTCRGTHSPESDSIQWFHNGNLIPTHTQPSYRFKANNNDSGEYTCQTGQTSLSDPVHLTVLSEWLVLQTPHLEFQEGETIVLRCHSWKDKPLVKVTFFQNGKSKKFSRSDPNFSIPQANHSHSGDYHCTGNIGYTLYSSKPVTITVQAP
The description is as above. Here is the method: as §1

The target in assay [6] is T5, Human FcγRIIIa (158F) extracellular domain (human, UniProt P08637 17-208).
T5 construct: extracellular domain; also called FcγRIII(158F)
T5 sequence (P08637 17-208): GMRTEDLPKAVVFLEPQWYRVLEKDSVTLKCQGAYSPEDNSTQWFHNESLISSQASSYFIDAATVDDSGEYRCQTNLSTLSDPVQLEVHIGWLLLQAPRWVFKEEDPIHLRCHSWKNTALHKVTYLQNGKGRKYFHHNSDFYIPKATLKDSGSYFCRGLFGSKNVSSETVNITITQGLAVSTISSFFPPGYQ
The assay is described as above. On the procedure:
as §1

For assay [7], the target named is T6, Human C1q (human, UniProt P02745 23-245; P02746 28-253; P02747 29-245).
T6 construct: Bought complement protein; In the CDC assay C1q came with human serum
T6 sequence (P02745 23-245 limits assumed, chain 1 of 3): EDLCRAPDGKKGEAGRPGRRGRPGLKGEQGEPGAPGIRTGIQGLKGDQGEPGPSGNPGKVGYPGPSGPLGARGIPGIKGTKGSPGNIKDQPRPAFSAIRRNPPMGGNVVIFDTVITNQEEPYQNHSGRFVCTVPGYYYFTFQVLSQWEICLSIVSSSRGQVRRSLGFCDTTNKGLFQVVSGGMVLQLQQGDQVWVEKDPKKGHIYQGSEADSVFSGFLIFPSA
T6 sequence (P02746 28-253 limits assumed, chain 2 of 3): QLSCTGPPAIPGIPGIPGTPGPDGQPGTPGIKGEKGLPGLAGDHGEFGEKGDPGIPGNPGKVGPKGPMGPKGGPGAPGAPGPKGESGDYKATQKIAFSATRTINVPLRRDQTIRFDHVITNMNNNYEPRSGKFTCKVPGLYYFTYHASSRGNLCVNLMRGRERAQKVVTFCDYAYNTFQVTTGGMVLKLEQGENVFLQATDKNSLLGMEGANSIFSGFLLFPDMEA
T6 sequence (P02747 29-245 limits assumed, chain 3 of 3): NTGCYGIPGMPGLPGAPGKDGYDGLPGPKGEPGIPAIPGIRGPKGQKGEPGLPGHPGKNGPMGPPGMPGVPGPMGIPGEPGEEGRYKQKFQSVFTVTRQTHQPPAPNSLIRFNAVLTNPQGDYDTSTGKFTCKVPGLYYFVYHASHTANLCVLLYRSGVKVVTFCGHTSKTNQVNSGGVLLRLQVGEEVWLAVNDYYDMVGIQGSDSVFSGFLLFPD
The assay is described as above. On the procedure: as §1

Positions count from the first letter of the chain named.

T2 sequence (P08637 17-208 F176V): as the sequence (P08637 17-208) above, with F160V counted along it

B1: Ab3 (anti-CD20 antibody HB20.3) with YTE variant IgG1 Fc domain (antibody)
heavy: QVQLQQPGAELVKPGASVKMSCKASGFTFTNYNMHWLKQTPGQGLEWIGAIYPENGDTSYNQKFKGKATLTADKASSTAYMHLSSLTSEDSAVYFCARFYYYGSYYGAMDYWGQGTSVTVSSASTKGPSVFPLAPSSKSTSGGTAALGCLVKDYFPEPVTVSWNSGALTSGVHTFPAVLQSSGLYSLSSVVTVPSSSLGTQTYICNVNHKPSNTKVDKRVEPKSCDKTHTCPPCPAPELLGGPSVFLFPPKPKDTLYITREPEVTCVVVDVSHEDPEVKFNWYVDGVEVHNAKTKPREEQYNSTYRVVSVLTVLHQDWLNGKEYKCKVSNKALPAPIEKTISKAKGQPREPQVYTLPPSREEMTKNQVSLTCLVKGFYPSDIAVEWESNGQPENNYKTTPPVLDSDGSFFLYSKLTVDKSRWQQGNVFSCSVMHEALHNHYTQKSLSLSPGK
light: DIQMTQSPASLSASVGETVTITCRASGNIHNYLAWYQQKQGKSPQLLVYNAKTLADGVPSRFSGSGSGTQFSLKINSLQPEDFGSYYCQHFWSTPWTFGGGTKLEIKRTVAAPSVFIFPPSDEQLKSGTASVVCLLNNFYPREAKVQWKVDNALQSGNSQESVTEQDSKDSTYSLSSTLTLSKADYEKHKVYACEVTHQGLSSPVTKSFNRGEC
notes: Full IgG1; also called Ab3 YTE
A word on the Kd: it is a measure of binding affinity in units of concentration. A higher Kd goes with a looser complex. As to B1, the Kd in assay [1] was 235 nM; in assay [2], 140 nM; in assay [3], 800 nM; in assay [4], 2800 nM; in assay [5] it was 1600 nM; in assay [6], 6100 nM. In assay [7], this molecule showed a Kd of 70 nM.

B2: Ab4 (anti-C5a antibody 1B8) with wild-type IgG1 Fc domain (antibody)
heavy: not shown
light: QSALTQPPSASGTPGQRVTISCSGTNSNIGSNYVFWYQQLPGTAPKLLIFESNRRPSGVPDRFSGSKSDTSASLAISGLRSEDEADYYCATWDDTLIAPVFGSGTKVTVLGQPKANPTVTLFPPSSEELQANKATLVCLISDFYPGAVTVAWKADSSPVKAGVETTTPSKQSNNKYAASSYLSLTPEQWKSHRSYSCQVTHEGSTVEKTVAPAEC
notes: Full human IgG1 lambda antibody; also called Ab4 WT; WT
On to B2, for which the Kd in assay [1] came to 1070 nM; in assay [2] it was 31 nM; in assay [3], 380 nM; in assay [4] it was 1000 nM; in assay [5], 2500 nM; in assay [6], 1600 nM. In assay [7], this molecule showed a Kd of 250 nM.

B3: Ab4 (anti-C5a antibody 1B8) with YTE variant IgG1 Fc domain (antibody)
heavy: EVQLLESGGGLVQPGGSLRLSCAASGFTFSSYVMNWVRQAPGKGLEWVSSISPSGGRTWYADSVKGRFTISRDNSKNTLYLQMNSLRAEDTAVYYCARSDGSAAGFLGYWGQGTLVTVSSASTKGPSVFPLAPSSKSTSGGTAALGCLVKDYFPEPVTVSWNSGALTSGVHTFPAVLQSSGLYSLSSVVTVPSSSLGTQTYICNVNHKPSNTKVDKRVEPKSCDKTHTCPPCPAPELLGGPSVFLFPPKPKDTLYITREPEVTCVVVDVSHEDPEVKFNWYVDGVEVHNAKTKPREEQYNSTYRVVSVLTVLHQDWLNGKEYKCKVSNKALPAPIEKTISKAKGQPREPQVYTLPPSREEMTKNQVSLTCLVKGFYPSDIAVEWESNGQPENNYKTTPPVLDSDGSFFLYSKLTVDKSRWQQGNVFSCSVMHEALHNHYTQKSLSLSPGK
light: B2 light
notes: Full IgG1; also called Ab4 YTE
Turning to B3, the Kd came out at 270 nM in assay [1]; 43 nM in assay [2]; 820 nM in assay [3]; 1900 nM in assay [4]; 3600 nM in assay [5]; 2800 nM in assay [6]. Also, the equilibrium dissociation constant (Kd) in assay [7] turned out to be 400 nM.

B4: Ab4 (anti-C5a antibody 1B8) with FQQ-YTE variant IgG1 Fc domain (antibody)
heavy: B3 heavy with L237F, L238Q, K325Q
light: B2 light
notes: Full IgG1; also called Ab4 FQQ-YTE
On to B4, for which the Kd in assay [1] stood at 290 nM. The binding result in assay [2], in assay [3], in assay [4], in assay [5], in assay [6] and in assay [7] was “no binding” each time.

B5: Ab4 (anti-C5a antibody 1B8) with FQG-YTE variant IgG1 Fc domain (antibody)
heavy: B3 heavy with L237F, L238Q, P334G
light: B2 light
notes: Full IgG1; also called Ab4 FQG-YTE
Consider B5, for which binding in assay [1] was put at a Kd of 350 nM. Besides, the binding result in assay [2], in assay [3], in assay [4], in assay [5], in assay [6] and in assay [7] was “no binding” in each case.
